As a reminder, the stoichiometry N is a count of units in the complex or per binding partner.

The data set deals with the molecule itself. The experiment in a line: SEC; gel-filtration chromatography of purified AmGGT and its mutants, with protein size markers; self-association, dimer against monomer. In general terms: Size exclusion chromatography separates by hydrodynamic size, large species first.

Substitutions are numbered along the chain they refer to. Names may count otherwise.

B1: Actinobacillus minor glucoside-glucosyltransferase (AmGGT), wild type (enzyme, Actinobacillus minor NM305, UniProt C5RYK2 1-341, looked up)
chain: MSNITFYFPFGHVPTYGGDFVNLEHIRALNKHGFSAKVILMKNQIPIVIESFPKDIPVVFYKPGMELNAQDVFVLSEGVRIMYSGLAQTQAFRVIVHNQNPFYTHTGMDSAHDINRYRITKIITPSHYTVKKLEEMGITKPMAVISPYIPEYFKPAEKSNEEIRITYSRRKREEESKILLFYLRSLYRGKKALHIRNLTNYKREEVAEEMSKAHIYASFAERESLGLMALEAMASGCHVVGFSGFTDFENQDVFNEENGDWVKEGEYKKFAEKLIEAIEQIENNTPSPKIENGLALVNSRFRQDRFEQEVVRVYQDILDNLPPLEGFNESDKVVLDFWHFD
notes: AmGGT, product of the ORF AM305_00150 of Actinobacillus minor strain NM305; ORF retrieved from NCBI, chemically synthesized, cloned into pET47b; The whole ORF was cloned; residues left over from the 3C protease site after cleavage are not described; also called AM305_00150 protein; WT AmGGT; source: E. coli BL21(DE3), purified (Ni-Sepharose, 3C protease cleavage, gel filtration; also HiTrapQ ion …)
As for B1, the “stoichiometry N” value is 2.

B2: AmGGT E135A mutant (enzyme)
chain: B1 chain with E135A
notes: AmGGT, product of the ORF AM305_00150 of Actinobacillus minor strain NM305, with E135A; Production of the mutants is not described separately; source: E. coli BL21(DE3), purified (as told for the AmGGT protein); not shown: His6, N-terminal, cleaved
Regarding B2, the binding result is on record as “binds”.

B3: AmGGT S185A mutant (enzyme)
chain: B1 chain with S185A
notes: AmGGT, product of the ORF AM305_00150 of Actinobacillus minor strain NM305, with S185A; Production of the mutants is not described separately; source: E. coli BL21(DE3), purified (as told for the AmGGT protein); not shown: His6, N-terminal, cleaved
In the case of B3, the binding result is “binds”.

Values taken from article PMC12159676, “An uncharacterized gene from the Actinobacillus genus encodes a glucosyltransferase with successive transfer activity and unique substrate specificity” (The Journal of Biological Chemistry, 2025).
